Data from patent publication US20050152888A1.

Molecular target: Rpn10 proteasome subunit C-terminally fused with Fpr1 (strain Rpn10-FPR1) (S. cerevisiae) (UniProt P38886)
Test: cell-based or functional assay

Rpn10 proteasome subunit C-terminally fused with Fpr1 (strain Rpn10-FPR1) (S. cerevisiae), sequence (P38886 other isoform, or with tags, fused parts or gaps): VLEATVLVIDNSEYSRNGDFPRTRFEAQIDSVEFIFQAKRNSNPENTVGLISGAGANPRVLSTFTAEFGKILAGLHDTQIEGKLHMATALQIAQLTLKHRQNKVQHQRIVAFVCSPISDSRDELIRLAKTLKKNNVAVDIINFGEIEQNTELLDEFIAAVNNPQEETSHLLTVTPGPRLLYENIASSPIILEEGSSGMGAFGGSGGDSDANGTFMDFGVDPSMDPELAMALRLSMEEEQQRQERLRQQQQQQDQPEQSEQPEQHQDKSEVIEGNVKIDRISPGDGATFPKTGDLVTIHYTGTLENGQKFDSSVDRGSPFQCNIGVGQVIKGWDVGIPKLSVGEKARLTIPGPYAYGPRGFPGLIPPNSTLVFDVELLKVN

half-life of reporter degradation in vitro with purified proteasomes and rapamycin (anti-HA Western): 15 min
Substance: HA epitope-tagged Tor-His3 purified from a bacterial expression system (PROTet.e133-TOR-link-HIS3HA) (from UniProt P35169 1883-2078; P06633 1-220)
